Reference: US20040009147A1 (Human Genome Sciences, published 2004)

Target: T1, mouse AIM II (LIGHT), membrane-bound (mouse, UniProt Q9QYH9 1-239)
T1 construct: whole, on cells; On human 293 cells transfected with pmAIM II (flow cytometry); also called mAIM II; pmAIM II-transfected 293 cells
T1 sequence (looked up): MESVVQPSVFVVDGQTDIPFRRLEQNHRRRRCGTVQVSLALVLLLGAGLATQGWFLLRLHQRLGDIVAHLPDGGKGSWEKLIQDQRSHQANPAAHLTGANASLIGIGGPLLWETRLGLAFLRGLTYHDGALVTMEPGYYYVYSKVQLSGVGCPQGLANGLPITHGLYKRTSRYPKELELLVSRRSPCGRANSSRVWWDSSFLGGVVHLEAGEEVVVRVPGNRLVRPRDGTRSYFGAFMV
Test: flow cytometry, mouse LTβR-Ig (1 µg in 50 µl) on 293 cells transfected with pmAIM II, FITC goat anti-human IgG
Experimental: Flow cytometric analysis. Human 293 cells (1×10⁶ cells) were transfected with either mouse AIM II pcDNA3 vector (10μg) or mock vector (10 μg) by calcium phosphate methods. After 30 hr of transfection, 293 cells were harvested and stained with 1 μg of mouse LTβR-Ig or the anti-AIM II antibody in 50 μl of PBS supplemented with 5% FBS and 0.02% azide for 30 min at 4° C. The cells were then washed and further incubated with FITC-conjugated anti-human IgG or anti-rabbit IgG for 30 min at 4° C., respectively. Fluorescence was analyzed by a FACSCalibur flow cytometry (Becton Dickinson, Mountain View, Calif.) with Cell Quest software (Becton Dickinson).

B1: mouse LTβR-Ig fusion protein (mouse LTβR extracellular domain fused to the Fc portion of human IgG1) (Fc fusion, UniProt P50284 31-223, looked up)
chain: QLVPPYRIENQTCWDQDKEYYEPMHDVCCSRCPPGEFVFAVCSRSQDTVCKTCPHNSYNEHWNHLSTCQLCRPCDIVLGFEEVAPCTSDRKAECRCQPGMSCVYLDNECVHCEEERLVLCQPGTEAEVTDEIMDTDVNCVPCKPGHFQNTSSPRARCQPHTRCEIQGLVEAAPGTSYSDTICKNPPEPGAMLL
notes: extracellular domain; Made in BHK/VP16 cells, purified on Protein A; not shown: Fc portion of human IgG1 (vector pX58)
B1: binds.
